The values below come from patent US20020103111A1, “Inhibitors of MAdCAM-1-mediated interactions and methods of use therefor” (Millennium Pharmaceuticals, Inc., priority 1996, published 2002).

Square brackets hold non-standard residues; d marks the D form. Ends that are not written are not given here. NMeL = CN[C@@H](CC(C)C)C(=O)O

One may read the IC50 as the point on the concentration scale where inhibition reaches its midpoint.

One assay has as its target human α4β7 integrin (human) (UniProt P13612). In words: inhibition of HUT 78 cell adhesion to murine MAdCAM-1/mCk.
For the substance Pba-Asp-Thr-Ser-Leu (peptide), the half-inhibitory concentration (IC50) is 13.3 µM.

Cpc-Asp-Thr-Ser-Leu (peptide) yielded a half-maximal inhibitory concentration (IC50) of 8.9 µM.

Regarding Ac-[NMeL]LDTSL, the IC50 stood at 1320 µM.

For [NMeL]LDTSL, the half-inhibitory concentration (IC50) is 256 µM.

Take Pca-Leu-Asp-Thr-Ser-Leu (peptide): the half-inhibitory concentration (IC50) came out at 2.1 µM.

The substance Pba-Asp-Thr (peptide) came in with a concentration for half-maximal inhibition (IC50) of 13.5 µM.

Substance Ac-MeLeu-Asp-Thr-Ser-Leu (peptide) came in with an IC50 of 150 µM.

Take Pca-Asp-Thr (peptide): the 50% inhibitory concentration (IC50) was found to be 11 µM.

Dphb-Leu-Asp-Thr-Ser-Leu (peptide) displayed an IC50 of 15 µM.

In the case of “Pba-Leu-Asp-Thr-Ser-Leu (00789-1A) (peptide)”, the 50% inhibitory concentration (IC50) came out at 4 µM.

On to 2-Anc-Leu-Asp-Thr-Ser-Leu (peptide), for which the 50% inhibitory concentration (IC50) is 5.4 µM.

The target is the same in a further assay. As to the kind of experiment: inhibition of HUT 78 cell adhesion to murine MAdCAM-1/mCk at 100 µM.
Pba-Asp-Thr-Ser-Leu (peptide) gave a % Adhesion Inhibition of 100%.

Take Pba-Asp-Thr (peptide): the % Adhesion Inhibition stood at 100%.

For a further assay the target is unchanged. In words: inhibition of HUT 78 cell adhesion to murine MAdCAM-1/mCk at 500 µM.
In the case of H-WRGLDTSLGS, the % Adhesion Inhibition is 76%.

For Ac-RVHWRGLDTSLGSVQ, the % Adhesion Inhibition turned out to be 88%.

Ac-[NMeL]LDTSL: the % Adhesion Inhibition was determined as 28%.

Ac-Lle-Asp-Thr-Ser-Leu (peptide): the % Adhesion Inhibition is 17%.

For [NMeL]LDTSL, the % Adhesion Inhibition amounted to 54%.

NH2-Leu-Asp-Thr-Ser-Leu (peptide) returned a % Adhesion Inhibition of 22%.

In turn, Ac-WRGLDTSLGS gave a % Adhesion Inhibition of 71%.

Substance H-HWRGLDTSLGSV returned a % Adhesion Inhibition of 80%.

With Ac-HWRGLDTSLGSV, the % Adhesion Inhibition is 71%.

In the case of Ac-RGLDTSLG, the % Adhesion Inhibition was 75%.

The substance H-RVHWRGLDTSLGSVQ registered a % Adhesion Inhibition of 90%.

A further assay shares this target. In words: RPMI 8866 adhesion to chimera on Protein A; neat; after control MAb 2G7.
In the case of “human MAdCAM-1-IgG chimera (huMAdCAM-1-Ig, construct HuMAdIg21) (from UniProt P01857 1-330) (Fc fusion)”, the bound cells (raw fluorescence) was determined as 196000.
